Starred links: 1 amine or outer side, 2 acyl side, 3 side chain; linkers in the order of their positions; H or OH if unused. Non-standard residues stand in square brackets, D forms with d. Groups on a side chain read outwards from the residue. No end group written: not given here. *: point of attachment. γGlu = O=C(O)[C@H](CCC(=O)[*:2])N[*:1]; Palmitoyl = CCCCCCCCCCCCCCCC(=O)*; Aib = CC(C)(N)C(=O)O
T1: human GIP receptor (human, UniProt P48546 22-466)
T1 sequence (looked up): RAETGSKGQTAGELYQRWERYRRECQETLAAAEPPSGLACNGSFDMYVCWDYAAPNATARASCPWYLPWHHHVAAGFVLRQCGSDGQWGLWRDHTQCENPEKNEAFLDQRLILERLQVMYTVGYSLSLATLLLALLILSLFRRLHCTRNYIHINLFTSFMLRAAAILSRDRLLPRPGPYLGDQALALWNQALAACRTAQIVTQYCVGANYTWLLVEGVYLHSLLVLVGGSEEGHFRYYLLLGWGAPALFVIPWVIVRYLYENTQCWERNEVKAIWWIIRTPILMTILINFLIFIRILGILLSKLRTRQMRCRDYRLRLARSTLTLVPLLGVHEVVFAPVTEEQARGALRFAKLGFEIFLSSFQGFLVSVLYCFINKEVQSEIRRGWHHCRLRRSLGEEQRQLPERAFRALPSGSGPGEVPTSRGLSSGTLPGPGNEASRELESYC


Key:
[1] = test system: female diet-induced obese (DIO) C57BL/6N mice; assay: Body mass after subcutaneous treatment in female diet-induced obese mice; type: in vivo, mouse; settings: for mean body weight reduction by day 23 versus the body weight at day 0: days 1, 8, 15, 22, female DIO mice
Protocol: Female C57BL/6N Cr1 mice were used for this study.
Mice were group housed under vivarium conditions that included a 12 h light/dark cycle, room temperatures—of 23±1° C. and a relative humidity between 30-70%. All animals had free access to water and diet (Ssniff adjusted high fat diet: TD.97366) for 18 weeks prior to pharmacological intervention (dosing phase). After pre-feeding period, mice were stratified for body weight to treatment groups with n=8, so that each group has similar mean body weight. At the study start mice were between 25-26 weeks old.
Mice were treated in the morning on days 1, 8, 15 and 22 between 8:00 and 9:00 AM with a s.c. injection of cross-linked hyaluronic acid (“vehicle”) or 100 and 200 nmol/kg/week conjugate (based on peptide content) of SEQ ID NO: 7 using a 30 G needle.
Body weight and food consumption were measured daily throughout the dosing phase. The study was terminated on day 23.
For statistical analyses a One-Way Analysis of Variance (ANOVA) was performed with SigmaStat 3.5. The power of the performed test was alpha=0.050:0.999 and a comparison versus the high fat diet-Vehicle group was performed with Dunnett's Method.

[2] = Pharmacokinetics in female SD rats; type: in vivo, Sprague-Dawley rats
Protocol: 5 female Sprague-Dawley rats were used in this study. Animals had access to food and water ad libitum throughout the entire study period. The animals were dosed with 1.01 mg/kg (peptide content) of a suspension of the conjugate of Seq ID. No.7. Plasma samples were taken at 4, 24, 48, 72, 144, 192, 240 and 336 h. Samples were analysed for the peptide. All quantitative results were determined by LC-MS/MS. For calculation of mean concentrations, values below the lower limit of quantification (LLOQ=2.5 ng/mL in plasma) were set to zero. The pharmacokinetic parameters were calculated by the program WinNonlin 6.4 using a non-compartmental model and linear trapezoidal interpolation calculation.

[3] = Pharmacokinetics in female Göttingen minipigs; type: in vivo; settings: for half-life in plasma: after subcutaneous administration
Protocol: 6 female Göttingen minipigs of average 30000 g weight were used in this study.
Animals had access to food and water ad libitum throughout the entire study period. The animals were dosed with 0.23 mg/kg of a 17.6% suspension of HA-Aib-linker-Seq ID. No.7. Plasma samples were taken at 0, 1, 4, 8, 24, 48, 72, 96, 144, 192, 264, 312, 360, 432, 480 and 528 h. Samples were analysed for the peptide. All quantitative results were determined by LC-MS/MS. For calculation of mean concentrations, values below the lower limit of quantification (LLOQ=0.5 ng/mL in plasma) were set to zero. The pharmacokinetic parameters were calculated by the program WinNonlin 6.4 using a non-compartmental model and linear trapezoidal interpolation calculation.

[4] = Injectability study (load on pre-filled syringe); type: physicochemical; settings: 20 mg/mL suspension, 13.5% peptide load, 1 mL BD Neopak PFS, needle 27G×½″ TW, 3.2 mm/s
Protocol: A suspension of HA-peptide conjugate with Seq. ID No. 7 (20 mg/mL in 20 mM acetate buffer, 7.6 mg/mL NaCl, 4 mg/mL soluble (non crosslinked) hyaluronic acid 700 kD, pH 4.8) was manually filled into 1 mL long BD Neopak glass pre-filled syringes (PFS), 600 μL each, and afterwards closed via vacuum stoppering. The filled PFS were loaded into the syringe holder of the equipment and the injection speed was adjusted to […] which equals 3.2 mm/s for the BD Neopak PFS.

human GLP-1 receptor = human GLP-1 receptor (human, UniProt P43220 24-463); assay: cell-based or functional assay
human glucagon receptor = human glucagon receptor (human, UniProt P47871 26-477); assay: cell-based or functional assay
human GIP receptor = target: T1, human GIP receptor; assay: cell-based or functional assay
[5] = peptide Seq. No. 7 in plasma, single s.c. 1.01 mg/kg (peptide content) conjugate suspension
[6] = peptide Seq. NO: 7 in plasma, single s.c. 0.23 mg/kg of 17.6% conjugate (0.04 mg/kg peptide)

Sequence of human glucagon receptor (P47871 26-477): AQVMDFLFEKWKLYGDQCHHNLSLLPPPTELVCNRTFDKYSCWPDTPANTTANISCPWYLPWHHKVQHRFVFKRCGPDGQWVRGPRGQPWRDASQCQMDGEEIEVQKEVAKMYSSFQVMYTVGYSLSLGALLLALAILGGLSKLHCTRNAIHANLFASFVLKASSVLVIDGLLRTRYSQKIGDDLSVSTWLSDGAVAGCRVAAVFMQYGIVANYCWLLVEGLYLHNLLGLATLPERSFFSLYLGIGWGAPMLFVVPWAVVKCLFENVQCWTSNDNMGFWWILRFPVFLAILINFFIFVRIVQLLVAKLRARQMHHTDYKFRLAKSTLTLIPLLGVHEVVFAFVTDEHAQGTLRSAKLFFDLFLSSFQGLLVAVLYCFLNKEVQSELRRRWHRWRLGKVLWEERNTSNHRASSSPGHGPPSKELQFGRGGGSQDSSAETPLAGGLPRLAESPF

| Molecule | mean body weight reduction by day 23 versus the body weight at day 0 ([1]; 100 nmol/kg/w s.c. (based on peptide content)) [%] | mean body weight reduction by day 23 versus the body weight at day 0 ([1]; 200 nmol/kg/w s.c. (based on peptide content)) [%] | body weight effect of the first administration ([1]; both doses (100 and 200 nmol/kg/week s.c.), p<0.05 vs high-fat diet vehicle) | half-life in plasma ([2]; after subcutaneous administration, 1.01 mg/kg (peptide content)) | AUClast [2, 5] [µg·h/mL] | Cmax [2, 5] [ng/mL] | tlast [2, 5] [h] | tmax [2, 5] [h] | half-life in plasma [3] | half-life in plasma ([3]; same value as in h) [h] | AUClast [3, 6] [µg·h/mL] | Cmax [3, 6] [ng/mL] | tlast [3, 6] [h] | tmax [3, 6] [h] | average load [4] [N] | maximum load [4] [N] | EC50 hGLP-1R (cAMP response, HTRF, HEK-293 cells) (human GLP-1 receptor) [pM] | EC50 hGlucagon R (cAMP response, HTRF, HEK-293 cells) (human glucagon receptor) [pM] | EC50 hGlP R (cAMP response, HTRF, HEK-293 cells) (human GIP receptor) [pM] |
| --- | --- | --- | --- | --- | --- | --- | --- | --- | --- | --- | --- | --- | --- | --- | --- | --- | --- | --- | --- |
| conjugate of SEQ ID NO: 7: Divinylsulfone-crosslinked hyaluronic acid hydrogel carrying peptide Seq. ID No. 7 via Aib-linker (thiol-maleimide conjugation) (H[Aib]HGTFTSDLSKLK([γGlu-γGlu-Palmitoyl])EEQRQ[Aib]EFIEWLKA[dA]GPPS[Aib]KPPPK-NH2; also: conjugated to divinylsulfone-crosslinked hyaluronic acid hydrogel via Aib-linker (thiol-maleimide), site not given here) | ~17.7±1.3 | ~19.5±1.4 | significant body weight-reducing effect that lasted until day 8 | around 3 days | 1.81 | 14.0 | 221 | 48.0 | around 139 h | 139 | 0.897 | 4.96 | 344 | 100 | 6.5 | 7.6 |  |  |  |
| H[Aib]HGTFTSDLSKLK([γGlu-γGlu-Palmitoyl])EEQRQ[Aib]EFIEWLKA[dA]GPPS[Aib]KPPPK-NH2 (N-terminus assumed; SMILES CCCCCCCCCCCCCCCC(=O)N[C@@H](CCC(=O)N[C@@H](CCC(=O)NCCCC[C@H](NC(=O)[C@H](CC(C)C)NC(=O)[C@H](CCCCN)NC(=O)[C@H](CO)NC(=O)[C@H](CC(C)C)NC(=O)[C@H](CC(=O)O)NC(=O)[C@H](CO)NC(=O)[C@@H](NC(=O)[C@H](Cc1ccccc1)NC(=O)[C@@H](NC(=O)CNC(=O)[C@H](Cc1c[nH]cn1)NC(=O)C(C)(C)NC(=O)[C@@H](N)Cc1c[nH]cn1)[C@@H](C)O)[C@@H](C)O)C(=O)N[C@@H](CCC(=O)O)C(=O)N[C@@H](CCC(=O)O)C(=O)N[C@@H](CCC(N)=O)C(=O)N[C@@H](CCCNC(=N)N)C(=O)N[C@@H](CCC(N)=O)C(=O)NC(C)(C)C(=O)N[C@@H](CCC(=O)O)C(=O)N[C@@H](Cc1ccccc1)C(=O)N[C@H](C(=O)N[C@@H](CCC(=O)O)C(=O)N[C@@H](Cc1c[nH]c2ccccc12)C(=O)N[C@@H](CC(C)C)C(=O)N[C@@H](CCCCN)C(=O)N[C@@H](C)C(=O)N[C@H](C)C(=O)NCC(=O)N1CCC[C@H]1C(=O)N1CCC[C@H]1C(=O)N[C@@H](CO)C(=O)NC(C)(C)C(=O)N[C@@H](CCCCN)C(=O)N1CCC[C@H]1C(=O)N1CCC[C@H]1C(=O)N1CCC[C@H]1C(=O)N[C@@H](CCCCN)C(N)=O)[C@@H](C)CC)C(=O)O)C(=O)O) [Peptide of SEQ ID NO: 7 (GLP-1/Glucagon/GIP triple receptor agonist, exendin-4 derivative)] |  |  |  |  |  |  |  |  |  |  |  |  |  |  |  |  | 2.9 | 2.1 | 1.5 |
| H[Aib]HGTFTSDLSKLK([γGlu-γGlu-Palmitoyl])EEQRQKEFIEWLKAGGHPS[Aib]KPPPK-NH2 (N-terminus assumed; SMILES CCCCCCCCCCCCCCCC(=O)N[C@@H](CCC(=O)N[C@@H](CCC(=O)NCCCC[C@H](NC(=O)[C@H](CC(C)C)NC(=O)[C@H](CCCCN)NC(=O)[C@H](CO)NC(=O)[C@H](CC(C)C)NC(=O)[C@H](CC(=O)O)NC(=O)[C@H](CO)NC(=O)[C@@H](NC(=O)[C@H](Cc1ccccc1)NC(=O)[C@@H](NC(=O)CNC(=O)[C@H](Cc1c[nH]cn1)NC(=O)C(C)(C)NC(=O)[C@@H](N)Cc1c[nH]cn1)[C@@H](C)O)[C@@H](C)O)C(=O)N[C@@H](CCC(=O)O)C(=O)N[C@@H](CCC(=O)O)C(=O)N[C@@H](CCC(N)=O)C(=O)N[C@@H](CCCNC(=N)N)C(=O)N[C@@H](CCC(N)=O)C(=O)N[C@@H](CCCCN)C(=O)N[C@@H](CCC(=O)O)C(=O)N[C@@H](Cc1ccccc1)C(=O)N[C@H](C(=O)N[C@@H](CCC(=O)O)C(=O)N[C@@H](Cc1c[nH]c2ccccc12)C(=O)N[C@@H](CC(C)C)C(=O)N[C@@H](CCCCN)C(=O)N[C@@H](C)C(=O)NCC(=O)NCC(=O)N[C@@H](Cc1c[nH]cn1)C(=O)N1CCC[C@H]1C(=O)N[C@@H](CO)C(=O)NC(C)(C)C(=O)N[C@@H](CCCCN)C(=O)N1CCC[C@H]1C(=O)N1CCC[C@H]1C(=O)N1CCC[C@H]1C(=O)N[C@@H](CCCCN)C(N)=O)[C@@H](C)CC)C(=O)O)C(=O)O) [Peptide of SEQ ID NO: 6 (GLP-1/Glucagon/GIP triple receptor agonist, exendin-4 derivative)] |  |  |  |  |  |  |  |  |  |  |  |  |  |  |  |  | 1.4 | 2.3 | 2.1 |

From patent publication US20200023070A1, “CONJUGATES COMPRISING AN GLP-1/GLUCAGON/GIP TRIPLE RECEPTOR AGONIST, A LINKER AND HYALURONIC ACID” (SANOFI, priority 2018, published 2020)
